We go through two molecules from patent publication US20190016810A1, “METHODS FOR TREATING OR PREVENTING GRAFT-VERSUS-HOST DISEASE INVOLVING THE ADMINISTRATION OF ANTI-CCR5 RECEPTOR AGENTS” (CytoDyn Inc., priority 2017, published 2019).

Entries after “also recorded” stand apart in the source; their conditions may differ.

The conditions of test [1]: in vivo; cited from earlier work.
Test [2] concerns the target T1, CCR5 (Homo sapiens, UniProt P51681). To be noted: activated human T cells, cited from earlier work.
The target in test [3] is T1, CCR5. To be noted: CD4+ T cells, cited from earlier work.
In test [4] the test system is engrafted human cells (CD45+, CD3+). The experiment in a line: Flow cytometry analysis of engrafted human cells in peripheral blood, spleen and bone marrow of NSG mice. As to conditions: for CD45+ cells in peripheral blood at the time of euthanasia: control 64%. In kind it is in vivo. On the procedure:
Peripheral blood (PB), bone marrow (BM), and spleen (SPL) samples were analyzed by flow cytometry. Splenocytes were passed through a […] strainer. Erythrocytes were lysed with ammonium chloride. Cells were washed twice with PBS and stained for 15 min at 4 deg C. in PBS/0.5 mM EDTA/0.5% BSA with the following antibodies: anti-human-CD3-FITC (clone UCHT1, IM1281U), anti-human-CD45-PC7 (clone J.33, 1M3548U), Beckman/Coulter. Samples were analyzed on a Cytomics FC500 Flow Analyzer (Beckman/Coulter).
A general note: A flow cytometer gives signals particle by particle.

Test [5] concerns the target T1, CCR5. Put plainly: Tyrosine kinase phosphorylation downstream of CCR5 receptor signaling in T cells in vitro. It counts as cell-based. The arrangement: tyrosine kinase phosphorylation downstream of CCR5 receptor signaling in T cells in vitro; endogenous in cells; host or cells: T cells. The source says: Thus, it is shown that PRO 140's activity as a CCL5 competitive binding inhibitor has a mixed impact on CCL5's ability to participate in downstream activity conventionally associated with the CCR5/CCL5 axis. Further elucidation of the role of PRO 140 and its immunomodulatory effects is the subject of continued investigation.

Another test deals with xeno-GVHD in NSG mice. The experiment in a line: xeno-GVHD in NSG mice engrafted with human bone marrow cells: physical signs, weight, survival.
For a further test, the system named is HIV-1. To be noted: at concentrations that do not affect CCR5 chemokine receptor activity; in vitro and hu-PBL-SCID mouse model; cited from earlier work.
Test [6] addresses T1, CCR5. Set-up: host or cells: CHO-K1. As to conditions: CHO-K1 cells, cited from earlier work.

T1 sequence (P51681 whole entry): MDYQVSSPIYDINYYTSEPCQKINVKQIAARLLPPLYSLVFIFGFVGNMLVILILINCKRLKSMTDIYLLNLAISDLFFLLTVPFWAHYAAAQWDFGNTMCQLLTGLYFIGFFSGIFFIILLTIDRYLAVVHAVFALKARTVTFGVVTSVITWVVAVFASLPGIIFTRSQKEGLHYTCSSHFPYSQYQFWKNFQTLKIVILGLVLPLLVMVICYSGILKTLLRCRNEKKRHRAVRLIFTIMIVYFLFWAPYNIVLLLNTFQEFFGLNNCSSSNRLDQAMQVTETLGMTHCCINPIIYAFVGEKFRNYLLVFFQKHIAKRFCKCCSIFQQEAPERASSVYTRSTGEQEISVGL
Method for xeno-GVHD in NSG mice: Animal experiments were conducted in accordance with the ethical standards and according to national and international guidelines and were approved by the Cleveland Clinic Institutional Animal Care and Use Committee. Male NSG mice, NOD.Cg-Prkdc^scidIl2ry^tm1wjl/SzJ (NOD-scid IL2ry^null, NSG) mice were obtained from the Jackson Laboratory (Bar Harbor, Me., USA), and athymic nude (nu/nu) (Taconic, Hudson, N.Y.) 6-8 wk old were used. Mice were housed in a barrier facility in cages with microisolator lids, autoclaved bedding, and HEPA-filtered air, and maintained under 12:12 light/dark cycles, controlled temperature and humidity. […] Conditioning regimen: Mice received 2.25 Gy total body irradiation via a 137Cs source (Shepherd, Los Angeles Calif.).
Following gamma irradiation (24 h later) mice were engrafted with human BM cells. De-identified human donor cells were obtained by back-flushing filter packs utilized by the Cleveland Clinic BMT program. Fresh (non-frozen) leukocytes were purified by Ficoll-Hypaque gradient centrifugation, washed in phosphate buffered saline (PBS), assessed for viability (ViCell, Beckman Coulter, Brea, Calif.). Human BM leukocytes were injected into the lateral tail vein (10^7 cells/mouse). Mice were monitored for clinical symptoms of GVHD (body posture, activity, fur and skin condition, weight loss) two times/wk. Peripheral blood was monitored weekly for engraftment utilizing saphenous vein venipuncture (50 mL) collected in K-EDTA tubes.
Mice were randomized into control and treatment groups by body weight. PRO 140 was administered on different doses (0.2-2.0 mg/kg) and schedules. The route was always intraperitoneal (i.p.). Control mice received normal human IgG (Sigma Aldrich, St. Louis, Mo.).
Starting with the human dose of PRO 140=5.8 mg/kg×12 (man-to-mouse conversion factor)=69.6 mg/kg mouse dose; average mouse=0.025 kg, therefore dose is 69.6 mg/kg×0.025 kg=1.74 mg (mouse single dose). This was rounded up to 2.0 mg and designated as the “high dose”. A “low dose” (0.2 mg) was also tested. IgG derived from human serum (>95% SDS-PAGE, Sigma, I4506) was used as a non-specific control antibody.
Statistical analysis was performed using GraphPad Prism (GraphPad Software, La Jolla, Calif.). All measures of variance were depicted as standard error of the mean (SEM). Survival was analyzed by the Kaplan-Meier method and Mantel-Cox log-rank test. For other data, two-sided unpaired Students t-test was used.

On to `Cc1nnc(C(C)C)n1C1C[C@H]2CC[C@@H](C1)N2CC[C@H](NC(=O)C1CCC(F)(F)CC1)c1ccccc1` (stereo in doubt) [maraviroc], for which the “incidence of gastrointestinal and liver GVHD” value in test [1] was “dramatically decreases the incidence of gastrointestinal and liver GVHD”. The “production of TNF-α and IFN-γ” value on CCR5 [2] (high doses) is “tends to decrease production of TNF-α and IFN-γ”. In addition, on CCR5 [2], the “CCR5 and CCR2 internalization induced by CCL5 and CCL2” value is “can block CCR5 and CCR2 internalization processes”; the “T cell chemotactic activities toward cognate ligands” value is recorded as “inhibit T cell chemotactic activities”.

B1: PRO 140: humanized monoclonal antibody to CCR5, humanized version of the murine mAb PA14; competitive inhibitor of CCL5 binding to CCR5 receptor (antibody, chains of the INN, looked up, V domains shown)
VH: EVQLVESGGGLVKPGGSLRLSCAASGYTFSNYWIGWVRQAPGKGLEWIGDIYPGGNYIRNNEKFKDKTTLSADTSKNTAYLQMNSLKTEDTAVYYCGSSFGSNYVFAWFTYWGQGTLVTVSS
VL: DIVMTQSPLSLPVTPGEPASISCRSSQRLLSSYGHTYLHWYLQKPGQSPQLLIYEVSNRFSGVPDRFSGSGSGTDFTLKISRVEAEDVGVYYCSQSTHVPLTFGQGTKVEIK
Consider B1, for which the “effect on cAMP levels, added alone” value with CCR5 [3] (PRO 140 alone) is “does not affect cAMP levels”. Moreover, the “effect on cAMP levels, administered with CCL5” value in the test with CCR5 [3] (with CCL5) is reported as “does diminish the effect of CCL5 on cAMP levels”. In test [4] (bone marrow at the time of euthanasia), the effect on engraftment result is “did not inhibit engraftment; also recorded: did not negatively affect engraftment”. Also, the “CD45+ cells in bone marrow versus control at the time of euthanasia” value in test [4] (compared with control IgG mice) is on record as “no differences”. Further, the “CD45+ cells in spleen at the time of euthanasia” value in test [4] (control 58-59%, p<0.05) is on record as 41%. The “CD45+ cells in peripheral blood at the time of euthanasia” value in test [4] (p<0.05) is reported as 46%. The “CD45+ cells in peripheral blood at the time of euthanasia” value in test [4] (p<0.05, listed as Pro 140) came out at 45%. For the same molecule, in test [4] (high dose cohort, Day 75), the “mouse hematopoietic cells (mouse CD45) in bone marrow” value worked out at 28% and the “mouse hematopoietic cells (mouse CD45) in peripheral blood” value turned out to be 14.9%. For the same molecule, the “mature T-cells (CD45/CD3) in bone marrow at 54 days” value in test [4] (high dose cohort, FIG. 6 BM panel E2 quadrant, control 40.2%) worked out at 26.4%. Moreover, the “mature T-cells (CD45/CD3) in peripheral blood at 54 days” value in test [4] (high dose cohort, FIG. 6 PB panel E2 quadrant, control 63.2%) was 49.8%. Moreover, in test [4] (high dose, compared with control IgG mice), the “human CD45+ cells in peripheral blood versus control at day 50” value is “significantly lower”. In addition, in test [4] (high dose, control 62%, p=0.034), the “human CD45+ cells in peripheral circulation at 50 days” value is recorded as 43%. Further, the “delay until the same percentage of CD45+ engraftment as control” value in test [4] (low dose (0.2 mg), peripheral blood, P<0.01) was “approximately 20 days”. Also, the “divergence in engraftment from control, start” value in test [4] (low dose cohort (0.2 mg)) turned out to be 15 days. The “effect on tyrosine kinase phosphorylation, alone” value with CCR5 [5] (PRO 140 alone) was “does not affect tyrosine kinase phosphorylation”. Moreover, in the test with CCR5 [5] (with CCL5), the “effect on phosphorylation of tyrosine kinases by CCL5” value was “does not inhibit phosphorylation of such kinases by CCL5”. For the same molecule, in the test on xeno-GVHD in NSG mice (PRO 140 0.2 mg i.p., BM from donor, control animals all dead by 31 days), the “survival (Kaplan-Meier), low dose” value is given as not above 54 days. Moreover, the “start of physical signs of GvHD and weight loss, low dose” value with xeno-GVHD in NSG mice (PRO 140 0.2 mg i.p., control mice starting at day 20) was in the range of 25 to 28 days. Further, in the test on xeno-GVHD in NSG mice (PRO 140 2.0 mg i.p. twice/wk started day 1, about 20 days after engraftment), the “mean weight at about 20 days” value was “about 23.0 gm”. Further, the “mean weight at about 52 days” value in the test on xeno-GVHD in NSG mice (PRO 140 2.0 mg i.p. twice/wk started day 1, about 52 days after engraftment) is “about 23.6 gm”. The “survival (Kaplan-Meier), high dose” value in the test with xeno-GVHD in NSG mice (PRO 140 2.0 mg i.p. twice/wk started day 1, sacrificed at 70 days, control IgG animals all dead by 56 days) is not below 70 days. In addition, in the test on xeno-GVHD in NSG mice (high dose (2.0 mg i.p. twice/wk), 70-day study period), the “physical signs / symptoms of GVHD” value is “did not exhibit any symptoms associated with GVHD; also recorded: no physical signs of GVHD”. For the same molecule, the weight course result with xeno-GVHD in NSG mice (high dose (2.0 mg i.p. twice/wk), control mice lost weight) is on record as “gained weight; also recorded: continued to gain weight”. The survival with xeno-GVHD in NSG mice (past 70 days, xeno-transplant animal model, NSG mice upon HSC engraftment) was determined as 100%. Further, the “HIV-1 entry and replication” value in the test with HIV-1 is “potently inhibits HIV-1 entry and replication”. Also, in the test with CCR5 [6] (PRO 140 alone), the “effect on chemotaxis, alone” value is given as “does not affect chemotaxis”. Besides, the “effect on CCL5-induced chemotaxis” value with CCR5 [6] (with CCL5) is listed as “does reduce CCL5-induced chemotaxis”.
